Tests used:
Settings in all cases: both partners purified
[1] = target: T1, extracellular domain of RAGE (M1-A344) (UniProt Q15109 23-344); test: SPR; same set-up, Bj 0.31-10 µM injected with 1 mM MTX; equilibrium responses (Req), Lineweaver-Burk plot, noncompetitive inhibition model
T1 construct: signal peptide in the construct; receptor for advanced glycation end products (RAGE), extracellular domain, M1-A344 as printed; The results call it 'chimeric RAGE' without saying what it is fused to; the R&D Systems product with these limits is probably the human RAGE Fc chimera (surmise), in which the signal peptide would be removed on secretion; also called chimeric RAGE; receptor for advanced …

[2] = target: T1, extracellular domain of RAGE (M1-A344); test: SPR; Biacore 3000; RAGE immobilised on a CM5 chip by amine coupling up to 5000 RU; Bj 0.31-10 µM injected at 30 µl/min, 120 s association and 120 s dissociation; PBS, 25°C; no MTX; kinetic analysis by global fitting
[3] = target: T1, extracellular domain of RAGE (M1-A344); test: SPR; same set-up, no MTX; equilibrium responses (Req), concentration-response curve and Lineweaver-Burk plot

T1 sequence (Q15109 23-344): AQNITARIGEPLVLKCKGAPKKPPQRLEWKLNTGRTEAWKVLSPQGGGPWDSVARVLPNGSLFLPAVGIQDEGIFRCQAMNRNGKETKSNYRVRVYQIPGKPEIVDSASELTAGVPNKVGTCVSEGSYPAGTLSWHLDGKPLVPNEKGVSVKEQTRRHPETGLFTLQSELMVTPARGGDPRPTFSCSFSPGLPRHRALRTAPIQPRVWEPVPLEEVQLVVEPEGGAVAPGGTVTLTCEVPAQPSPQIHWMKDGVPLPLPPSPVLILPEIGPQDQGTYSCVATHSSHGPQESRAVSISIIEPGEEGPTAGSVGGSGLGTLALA

Kd [1]: 1390 nM
Kd [2]: 3710 ± 1680 nM
koff [2]: 0.00052 ± 0.25 s⁻¹
kon [2]: 150 ± 0.01 M⁻¹ s⁻¹
Kd [3]: 1350 nM
B1: Bj protein (amino acid residues F88-K181 of HMGB1) (domain or fragment)
chain: FKDPNAPKRPPSAFFLFCSEYRPKIKGEHPGLSIGDVAKKLGEMWNNTAADDKQPYEKKAAKLKEKYEKDIAAYRAKGKPDAAKKGVVKAEKSK
modifications: Paper numbering starts at G1 (initiator Met removed), so entry number = paper number + 1 (F88-K181 -> 89-182; D157 -> D158; Y161 -> Y162). N-terminal 6xHis tag from pTrcHis omitted; expressed in E. …

From PMC3643934, “Identification and Characterization of the Direct Interaction between Methotrexate (MTX) and High-Mobility Group Box 1 (HMGB1) Protein” (PLoS ONE, 2013)
